Measured values reported in patent publication US20170052184A1.
Where a chain is given by its changes, count along the chain named. Where two headings read alike, the source gives them in different places.

T1: HCV Core1-169 (hepatitis C virus (HCV-1)), P26664
T1 chain: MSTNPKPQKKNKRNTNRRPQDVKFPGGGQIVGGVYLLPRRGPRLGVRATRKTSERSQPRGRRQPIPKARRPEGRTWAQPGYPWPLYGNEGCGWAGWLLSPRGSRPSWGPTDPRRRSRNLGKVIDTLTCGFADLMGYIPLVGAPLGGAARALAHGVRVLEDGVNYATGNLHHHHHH

T2: HCV Core1-169 (HCV-1), P26664
T2 chain: T1 chain

T3: HCV bt-134-154 (Peptide 1, HCVc 134-154) (Hepatitis C virus (numbering per HCV-1))
T3 sequence (peptide, biotin (carboxy-terminal per [p-0227]; N-terminal per [p-0050])): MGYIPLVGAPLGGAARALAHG

T4: HCV bt-151-171 (Peptide 3, HCVc 151-171) (Hepatitis C virus (numbering per HCV-1))
T4 sequence (peptide, biotin (carboxy-terminal per [p-0227]; N-terminal per [p-0050])): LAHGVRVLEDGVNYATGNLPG

T5: HCV bt-141-161 (Peptide 2, HCVc 141-161) (Hepatitis C virus (numbering per HCV-1))
T5 sequence (peptide, biotin (carboxy-terminal per [p-0227]; N-terminal per [p-0050])): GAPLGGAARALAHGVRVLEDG

B1: HCV 208A-983 (antibody, V domains shown)
VH: QGQMQQSGAELVKPGASVKLSCKTSGFTFSSSYFSWLKQKPGQSLEWIAWIYAGTGNTIYNQKFTDKAQLTVDTASSTAFMQLSSLTIEDSAIYYCAISGTGFTYWGQGTLVTVSA
VL: DVLMTQTPLSLPVNLGDQASISCRSSQSLLHSNGNTYLEWFLQKPGQSPKLLIYNVSNRFSGVPDRFSGSGSGTDFTLKISRVEAEDLGVYYCFQGSHVPFTFGSGTKLAIKR
B2: HCV 208B-471 (antibody, V domains shown)
VH: QGQLQQSGPVLVKPGASEILYCKTSGFTFSSTYISWLKQKPGQSLEWIAWIYAGTGATNYNQKFTGKAQLTVDASSNTAYMHFSGLTPEDSAIYYCAISGAGVYWGQGTLVTVSA
VL: B1 VL with L3V, N14S, F41Y, K50N, T77A, E84G, F101L, S105A, A110E, I111L
B3: HCV 208A-967 (antibody, V domains shown)
VH: QVQLEESGPGLVAPSQSLSITCTVSGFSLTSYGVHWVRQPPGKGLEWLGVIWAVGSINYNSALMSRLSISKDNSKSQVFLKMNSLRTDDTAMYYCARDRTTATPFFDYWGQGTTLTVSS
VL: DIVLTQSPASLAGSLGKRAPISCKASESVNFFGTNLIHWYQQKPGQPPKLLIYHASNLKTGVPARFRGRGSKTNFPLPIDPVEENDVAIYYCLQNRKIPLTFGVGTKLELKR
B4: HCV 208B-174 (antibody, V domains shown)
VH: EVKLEESGGGLVQPGGSMKLSCVASGFSFSSYWMSWVRQSPEKGLDWVAEIRLRSDNYATHYAESVKGRFTISRDDSISRLYLQMNTLRAEDTGIYYCTWMTYWGQGTLVTVSA
VL: QNVLTQSPAIMSASPGEKVTMSCSASSSVTYMFWYQLKPESSPRLLIYDTSNLASGVPVRFSGSGSGTSYSLTISRMEAEDAATYYCQEWSSYPLTFGAGTKLDLKR

What was measured:
[1] = biological target: T1, HCV Core1-169 (hepatitis C virus …); assay: SPR sandwich, capture mAb C11-14; conditions: remark: other sources report otherwise
[2] = biological target: T1, HCV Core1-169 (hepatitis C virus …); assay: SPR sandwich, capture mAb C11-3; conditions: remark: other sources report otherwise
[3] = biological target: T1, HCV Core1-169 (hepatitis C virus …); assay: SPR sandwich, capture mAb C11-7; conditions: remark: other sources report otherwise
[4] = biological target: T2, HCV Core1-169 (HCV-1), P26664; assay: EIA, core1-169 coated on plate; conditions: remark: other sources report otherwise
[5] = biological target: T2, HCV Core1-169 (HCV-1), P26664; assay: EIA, core1-169 captured by mAb 14-153-229; conditions: remark: other sources report otherwise
[6] = biological target: T1, HCV Core1-169 (hepatitis C virus …); assay: SPR sandwich, capture mAb C11-9; conditions: remark: other sources report otherwise
[7] = biological target: HCV Core1-169 (hepatitis C virus (HCV-1)) (UniProt P26664); assay: SPR sandwich, capture mAb C11-9
[8] = biological target: bovine serum albumin (bovine) (UniProt P02769); assay: EIA, BSA control
[9] = biological target: bovine serum albumin (BSA) (bovine) (UniProt P02769); assay: EIA, BSA background
[10] = biological target: HCV Core1-169 (hepatitis C virus (HCV-1)) (UniProt P26664); assay: SPR sandwich, capture mAb C11-14
HCV Core1-169 (HCV-1) [11] = biological target: HCV Core1-169 (HCV-1) (UniProt P26664); assay: EIA, core1-169 captured by mAb 14-153-229
[12] = biological target: HCV Core1-169 (hepatitis C virus (HCV-1)) (UniProt P26664); assay: SPR sandwich, capture mAb C11-7
[13] = biological target: HCV Core1-169 (hepatitis C virus (HCV-1)) (UniProt P26664); assay: SPR sandwich, capture mAb C11-3
HCV Core1-169 (HCV-1) [14] = biological target: HCV Core1-169 (HCV-1) (UniProt P26664); assay: EIA, core1-169 coated on plate
[15] = biological target: T3, HCV bt-134-154 (Peptide 1, HCVc 134-154) (Hepatitis C virus (numbering per HCV-1)); assay: EIA, captured mAb + biotin peptide
[16] = biological target: T4, HCV bt-151-171 (Peptide 3, HCVc 151-171) (Hepatitis C virus (numbering per HCV-1)); assay: EIA, captured mAb + biotin peptide
[17] = biological target: T5, HCV bt-141-161 (Peptide 2, HCVc 141-161) (Hepatitis C virus (numbering per HCV-1)); assay: EIA, captured mAb + biotin peptide
[18] = biological target: bovine serum albumin (BSA) (bovine) (UniProt P02769); assay: EIA, BSA background; remark: listed apart in the source

bovine serum albumin (BSA) (bovine), sequence (P02769 25-607 limits assumed): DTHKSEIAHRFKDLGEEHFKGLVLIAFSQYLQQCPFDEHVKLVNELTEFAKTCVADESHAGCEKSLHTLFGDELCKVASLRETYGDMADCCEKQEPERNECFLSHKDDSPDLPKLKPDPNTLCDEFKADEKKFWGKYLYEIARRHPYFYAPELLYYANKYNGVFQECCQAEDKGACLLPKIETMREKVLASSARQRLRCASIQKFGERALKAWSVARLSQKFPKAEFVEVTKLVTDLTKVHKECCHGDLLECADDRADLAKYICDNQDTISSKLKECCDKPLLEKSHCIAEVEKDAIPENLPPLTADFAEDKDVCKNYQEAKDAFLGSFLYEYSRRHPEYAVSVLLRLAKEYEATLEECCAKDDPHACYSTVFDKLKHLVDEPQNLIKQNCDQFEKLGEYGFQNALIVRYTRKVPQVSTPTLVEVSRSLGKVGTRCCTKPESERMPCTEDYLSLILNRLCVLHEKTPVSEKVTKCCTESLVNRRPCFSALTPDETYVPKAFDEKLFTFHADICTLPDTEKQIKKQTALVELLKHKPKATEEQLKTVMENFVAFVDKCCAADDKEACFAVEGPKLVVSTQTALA
bovine serum albumin (bovine), sequence (P02769 25-607 limits assumed): as above

Binder	expected percent binding [1]	expected percent binding [2]	expected percent binding [3]	OD (A492) [4]	OD (A492) [5]	expected percent binding [6]	expected percent binding [7]	Reactivity (OD 492 nm) [8]	OD (A492) [9]	expected percent binding [10]	OD (A492) (HCV Core1-169 (HCV-1) [11])	expected percent binding [12]	expected percent binding [13]	OD (A492) (HCV Core1-169 (HCV-1) [14])	Reactivity (OD 492 nm) [15]	Reactivity (OD 492 nm) [16]	Reactivity (OD 492 nm) [17]	OD (A492) [18]
B1	< 1%	< 1%	< 1%	0.12 OD	0.64 OD	< 1%	–	–	–	–	–	–	–	–	–	–	–	–
B2	< 1%	< 1%	< 1%	0.24 OD	0.35 OD	< 1%	–	–	–	–	–	–	–	–	–	–	–	–
B3	–	–	–	–	–	–	< 1%	0.07 OD units	0.15 OD	< 1%	0.18 OD	< 1%	< 1%	1.08 OD	0.52 OD units	0.18 OD units	0.73 OD units	1.3 OD
B4	1.6%	1.6%	1.5%	0.15 OD	0.75 OD	< 1%	–	–	–	–	–	–	–	–	–	–	–	–
